Measured values reported in the supplement of paper PMC5998384.

Tests used:
HeLa Kyoto [1] = test: solubility in G1/S (NP-40 vs SDS abundance) (log2 ratio); higher = more soluble; conditions: cell cycle stage: G1/S
HeLa Kyoto [2] = test: solubility change mitosis vs G1/S (difference of NP-40 vs SDS log2 ratios) (log2 ratio difference); higher = more soluble in mitosis
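Wherever solubility change mitosis vs G1/S (difference of NP-40 vs SDS log2 ratios) is given: synchronized HeLa Kyoto cells (double thymidine block for G1/S, nocodazole release for mitosis), protein amounts in NP-40 versus SDS lysates quantified by mass spectrometry, three biological replicates.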
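Wherever solubility in G1/S (NP-40 vs SDS abundance) is given: HeLa Kyoto cells arrested at G1/S by double thymidine block, proteins quantified by TMT10plex mass spectrometry in mild NP-40 versus SDS extracts, three biological replicates.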

Substance	solubility in G1/S (log2) (HeLa Kyoto [1])	solubility change mitosis (log2) (HeLa Kyoto [2])
MLRLQMTDGHISCTAVEFSYMSKISLNTPPGTKVKLSGIVDIKNGFLLLNDSNTTVLGGEVEHLIEKWELQRSLSKHNRSNIGTEGGPPPFVPFGQKCVSHVQVDSRELDRRKTLQVTMPVKPTNDNDEFEKQRTAAIAEVAKSKETKTFGGGGGGARSNLNMNAAGNRNREVLQKEKSTKSEGKHEGVYRELVDEKALKHITEMGFSKEASRQALMDNGNNLEAALNVLLTSNKQKPVMGPPLRGRGKGRGRIRSEDEEDLGNARPSAPSTLFDFLESKMGTLNVEEPKSQPQQLHQGQYRSSNTEQNGVKDNNHLRHPPRNDTRQPRNEKPPRFQRDSQNSKSVLEGSGLPRNRGSERPSTSSVSEVWAEDRIKCDRPYSRYDRTKDTSYPLGSQHSDGAFKKRDNSMQSRSGKGPSFAEAKENPLPQGSVDYNNQKRGKRESQTSIPDYFYDRKSQTINNEAFSGIKIEKHFNVNTDYQNPVRSNSFIGVPNGEVEMPLKGRRIGPIKPAGPVTAVPCDDKIFYNSGPKRRSGPIKPEKILESSIPMEYAKMWKPGDECFALYWEDNKFYRAEVEALHSSGMTAVVKFIDYGNYEEVLLSNIKPIQTEAWEEEGTYDQTLEFRRGGDGQPRRSTRPTQQFYQPPRARN [TDRD3]	-0.658	0.149
MASVLSYESLVHAVAGAVGSVTAMTVFFPLDTARLRLQVDEKRKSKTTHMVLLEIIKEEGLLAPYRGWFPVISSLCCSNFVYFYTFNSLKALWVKGQHSTTGKDLVVGFVAGVVNVLLTTPLWVVNTRLKLQGAKFRNEDIVPTNYKGIIDAFHQIIRDEGISALWNGTFPSLLLVFNPAIQFMFYEGLKRQLLKKRMKLSSLDVFIIGAVAKAIATTVTYPLQTVQSILRFGRHRLNPENRTLGSLRNILYLLHQRVRRFGIMGLYKGLEAKLLQTVLTAALMFLVYEKLTAATFTVMGLKRAHQH [SLC25A17]	-0.148	-0.0966
MRSRSNSGVRLDGYARLVQQTILCHQNPVTGLLPASYDQKDAWVRDNVYSILAVWGLGLAYRKNADRDEDKAKAYELEQSVVKLMRGLLHCMIRQVDKVESFKYSQSTKDSLHAKYNTKTCATVVGDDQWGHLQLDATSVYLLFLAQMTASGLHIIHSLDEVNFIQNLVFYIEAAYKTADFGIWERGDKTNQGISELNASSVGMAKAALEALDELDLFGVKGGPQSVIHVLADEVQHCQSILNSLLPRASTSKEVDASLLSVVSFPAFAVEDSQLVELTKQEIITKLQGRYGCCRFLRDGYKTPKEDPNRLYYEPAELKLFENIECEWPLFWTYFILDGVFSGNAEQVQEYKEALEAVLIKGKNGVPLLPELYSVPPDRVDEEYQNPHTVDRVPMGKLPHMWGQSLYILGSLMAEGFLAPGEIDPLNRRFSTVPKPDVVVQVSILAETEEIKTILKDKGIYVETIAEVYPIRVQPARILSHIYSSLGCNNRMKLSGRPYRHMGVLGTSKLYDIRKTIFTFTPQFIDQQQFYLALDNKMIVEMLRTDLSYLCSRWRMTGQPTITFPISHSMLDEDGTSLNSSILAALRKMQDGYFGGARVQTGKLSEFLTTSCCTHLSFMDPGPEGKLYSEDYDDNYDYLESGNWMNDYDSTSHARCGDEVARYLDHLLAHTAPHPKLAPTSQKGGLDRFQAAVQTTCDLMSLVTKAKELHVQNVHMYLPTKLFQASRPSFNLLDSPHPRQENQVPSVRVEIHLPRDQSGEVDFKALVLQLKETSSLQEQADILYMLYTMKGPDWNTELYNERSATVRELLTELYGKVGEIRHWGLIRYISGILRKKVEALDEACTDLLSHQKHLTVGLPPEPREKTISAPLPYEALTQLIDEASEGDMSISILTQEIMVYLAMYMRTQPGLFAEMFRLRIGLIIQVMATELAHSLRCSAEEATEGLMNLSPSAMKNLLHHILSGKEFGVERSVRPTDSNVSPAISIHEIGAVGATKTERTGIMQLKSEIKQVEFRRLSISAESQSPGTSMTPSSGSFPSAYDQQSSKDSRQGQWQRRRRLDGALNRVPVGFYQKVWKVLQKCHGLSVEGFVLPSSTTREMTPGEIKFSVHVESVLNRVPQPEYRQLLVEAILVLTMLADIEIHSIGSIIAVEKIVHIANDLFLQEQKTLGADDTMLAKDPASGICTLLYDSAPSGRFGTMTYLSKAAATYVQEFLPHSICAMQ [PHKA1]	0.037	-0.332
MSGTSKESLGHGGLPGLGKTCLTTMDTKLNMLNEKVDQLLHFQEDVTEKLQSMCRDMGHLERGLHRLEASRAPGPGGADGVPHIDTQAGWPEVLELVRAMQQDAAQHGARLEALFRMVAAVDRAIALVGATFQKSKVADFLMQGRVPWRRGSPGDSPEENKERVEEEGGKPKHVLSTSGVQSDAREPGEESQKADVLEGTAERLPPIRASGLGADPAQAVVSPGQGDGVPGPAQAFPGHLPLPTKVEAKAPETPSENLRTGLELAPAPGRVNVVSPSLEVAPGAGQGASSSRPDPEPLEEGTRLTPGPGPQCPGPPGLPAQARATHSGGETPPRISIHIQEMDTPGEMLMTGRGSLGPTLTTEAPAAAQPGKQGPPGTGRCLQAPGTEPGEQTPEGARELSPLQESSSPGGVKAEEEQRAGAEPGTRPSLARSDDNDHEVGALGLQQGKSPGAGNPEPEQDCAARAPVRAEAVRRMPPGAEAGSVVLDDSPAPPAPFEHRVVSVKETSISAGYEVCQHEVLGGGRFGQVHRCTEKSTGLPLAAKIIKVKSAKDREDVKNEINIMNQLSHVNLIQLYDAFESKHSCTLVMEYVDGGELFDRITDEKYHLTELDVVLFTRQICEGVHYLHQHYILHLDLKPENILCVNQTGHQIKIIDFGLARRYKPREKLKVNFGTPEFLAPEVVNYEFVSFPTDMWSVGVITYMLLSGLSPFLGETDAETMNFIVNCSWDFDADTFEGLSEEAKDFVSRLLVKEKSCRMSATQCLKHEWLNNLPAKASRSKTRLKSQLLLQKYIAQRKWKKHFYVVTAANRLRKFPTSP [MYLK3]	-0.00349	-0.0471
MQAEGRGTGGSTGDADGPGGPGIPDGPGGNAGGPGEAGATGGRGPRGAGAARASGPRGGAPRGPHGGAASAQDGRCPCGARRPDSRLLELHITMPFSSPMEAELVRRILSRDAAPLPRPGAVLKDFTVSGNLLFMSVRDQDREGAGRMRVVGWGLGSASPEGQKARDLRTPKHKVSEQRPGTPGPPPPEGAQGDGCRGVAFNVMFSAPHI [CTAG2]	1	-0.32
CDK5RAP2	-0.157	-0.239
MSFLFSSRSSKTFKPKKNIPEGSHQYELLKHAEATLGSGNLRQAVMLPEGEDLNEWIAVNTVDFFNQINMLYGTITEFCTEASCPVMSAGPRYEYHWADGTNIKKPIKCSAPKYIDYLMTWVQDQLDDETLFPSKIGVPFPKNFMSVAKTILKRLFRVYAHIYHQHFDSVMQLQEEAHLNTSFKHFIFFVQEFNLIDRRELAPLQELIEKLGSKDR [MOB1A]	0.448	-0.11
MVKLFIGNLPREATEQEIRSLFEQYGKVLECDIIKNYGFVHIEDKTAAEDAIRNLHHYKLHGVNINVEASKNKSKASTKLHVGNISPTCTNQELRAKFEEYGPVIECDIVKDYAFVHMERAEDAVEAIRGLDNTEFQGKRMHVQLSTSRLRTAPGMGDQSGCYRCGKEGHWSKECPVDRTGRVADFTEQYNEQYGAVRTPYTMGYGESMYYNDAYGALDYYKRYRVRSYEAVAAAAAASAYNYAEQTMSHLPQVQSTTVTSHLNSTSVDPYDRHLLPNSGAAATSAAMAAAAATTSSYYGRDRSPLRRAAAMLPTVGEGYGYGPESELSQASAATRNSLYDMARYEREQYVDRARYSAF [RBM4B]	0.227	-0.335
MGSKERFHWQSHNVKQSGVDDMVLLPQITEDAIAANLRKRFMDDYIFTYIGSVLISVNPFKQMPYFTDREIDLYQGAAQYENPPHIYALTDNMYRNMLIDCENQCVIISGESGAGKTVAAKYIMGYISKVSGGGEKVQHVKDIILQSNPLLEAFGNAKTVRNNNSSRFGKYFEIQFSRGGEPDGGKISNFLLEKSRVVMQNENERNFHIYYQLLEGASQEQRQNLGLMTPDYYYYLNQSDTYQVDGTDDRSDFGETLSAMQVIGIPPSIQQLVLQLVAGILHLGNISFCEDGNYARVESVDLLAFPAYLLGIDSGRLQEKLTSRKMDSRWGGRSESINVTLNVEQAAYTRDALAKGLYARLFDFLVEAINRAMQKPQEEYSIGVLDIYGFEIFQKNGFEQFCINFVNEKLQQIFIELTLKAEQEEYVQEGIRWTPIQYFNNKVVCDLIENKLSPPGIMSVLDDVCATMHATGGGADQTLLQKLQAAVGTHEHFNSWSAGFVIHHYAGKVSYDVSGFCERNRDVLFSDLIELMQTSEQAFLRMLFPEKLDGDKKGRPSTAGSKIKKQANDLVATLMRCTPHYIRCIKPNETKRPRDWEENRVKHQVEYLGLKENIRVRRAGFAYRRQFAKFLQRYAILTPETWPRWRGDERQGVQHLLRAVNMEPDQYQMGSTKVFVKNPESLFLLEEVRERKFDGFARTIQKAWRRHVAVRKYEEMREEASNILLNKKERRRNSINRNFVGDYLGLEERPELRQFLGKRERVDFADSVTKYDRRFKPIKRDLILTPKCVYVIGREKVKKGPEKGQVCEVLKKKVDIQALRGVSLSTRQDDFFILQEDAADSFLESVFKTEFVSLLCKRFEEATRRPLPLTFSDTLQFRVKKEGWGGGGTRSVTFSRGFGDLAVLKVGGRTLTVSVGDGLPKSSKPTRKGMAKGKPRRSSQAPTRAAPAPPRGMDRNGVPPSARGGPLPLEIMSGGGTHRPPRGPPSTSLGASRRPRARPPSEHNTEFLNVPDQGMAGMQRKRSVGQRPVPGVGRPKPQPRTHGPRCRALYQYVGQDVDELSFNVNEVIEILMEDPSGWWKGRLHGQEGLFPGNYVEKI [MYO1F]	-0.1	-0.173
MFPLKDAEMGAFTFFASALPHDVCGSNGLPLTPNSIKILGRFQILKTITHPRLCQYVDISRGKHERLVVVAEHCERSLEDLLRERKPVSCSTVLCIAFEVLQGLQYMNKHGIVHRALSPHNILLDRKGHIKLAKFGLYHMTAHGDDVDFPIGYPSYLAPEVIAQGIFKTTDHMPSKKPLPSGPKSDVWSLGIILFELCVGRKLFQSLDISERLKFLLTLDCVDDTLIVLAEEHGCLDIIKELPETVIDLLNKCLTFHPSKRPTPDQLMKDKVFSEVSPLYTPFTKPASLFSSSLRCADLTLPEDISQLCKDINNDYLAERSIEEVYYLWCLAGGDLEKELVNKEIIRSKPPICTLPNFLFEDGESFGQGRDRSSLLDDTTVTLSLCQLRNRLKDVGGEAFYPLLEDDQSNLPHSNSNNELSAAATLPLIIREKDTEYQLNRIILFDRLLKAYPYKKNQIWKEARVDIPPLMRGLTWAALLGVEGAIHAKYDAIDKDTPIPTDRQIEVDIPRCHQYDELLSSPEGHAKFRRVLKAWVVSHPDLVYWQGLDSLCAPFLYLNFNNEALAYACMSAFIPKYLYNFFLKDNSHVIQEYLTVFSQMIAFHDPELSNHLNEIGFIPDLYAIPWFLTMFTHVFPLHKIFHLWDTLLLGNSSFPFCIGVAILQQLRDRLLANGFNECILLFSDLPEIDIERCVRESINLFCWTPKSATYRQHAQPPKPSSDSSGGRSSAPYFSAECPDPPKTDLSRESIPLNDLKSEVSPRISAEDLIDLCELTVTGHFKTPSKKTKSSKPKLLVVDIRNSEDFIRGHISGSINIPFSAAFTAEGELTQGPYTAMLQNFKGKVIVIVGHVAKHTAEFAAHLVKMKYPRICILDGGINKIKPTGLLTIPSPQI [TBCK]	-0.278	-0.162
MRLTPRALCSAAQAAWRENFPLCGRDVARWFPGHMAKGLKKMQSSLKLVDCIIEVHDARIPLSGRNPLFQETLGLKPHLLVLNKMDLADLTEQQKIMQHLEGEGLKNVIFTNCVKDENVKQIIPMVTELIGRSHRYHRKENLEYCIMVIGVPNVGKSSLINSLRRQHLRKGKATRVGGEPGITRAVMSKIQVSERPLMFLLDTPGVLAPRIESVETGLKLALCGTVLDHLVGEETMADYLLYTLNKHQRFGYVQHYGLGSACDNVERVLKSVAVKLGKTQKVKVLTGTGNVNIIQPNYPAAARDFLQTFRRGLLGSVMLDLDVLRGHPPAETLP [MTG1]	0.123	-0.0796
